Results from US20210340207A1 (Merck Sharp & Dohme, published 2021).

Target: T1, Human IL-2Rβ (Table 7B) (human, UniProt P14784 27-239, limits assumed)
T1 sequence (looked up): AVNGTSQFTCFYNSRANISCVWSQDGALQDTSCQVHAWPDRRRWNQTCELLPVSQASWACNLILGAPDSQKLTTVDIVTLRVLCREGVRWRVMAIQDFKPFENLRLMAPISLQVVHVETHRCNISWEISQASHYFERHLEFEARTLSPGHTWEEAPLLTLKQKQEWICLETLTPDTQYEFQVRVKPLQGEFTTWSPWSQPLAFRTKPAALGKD
Test: SPR (Biacore T200)

- Kd: 770 nM
- koff: 0.3 s⁻¹
- kon: 390000 M⁻¹ s⁻¹
B1: Ald_F41/Y44A/l71G* (ligand)
chain: PTSSSTKKTQLQLEHLLLDLQMILNGINNYKNPKLTRMLTAKFAMPKKATELKHLQCLEEELKPLEEVLNGAQSKNFHLRPRDLISNINVIVLELKGSETTFMCEYADETATIVEFLNRWITFSQSIISTLTGGSHHHHHH
